Source: the RNAGym collection of RNA variant scans (doi:10.7554/elife.90254)

B1: OR4K15 (parent)
chain: GUUAACGGUCAUAGGCCAUGGAAACUAGGAGCACCAUUUCGCUGCCAGUGAAGAAAUGAACAAAGAAAAUCUGGGCCAGGCAGGCAUCAAAAGAAAUAGUCUUGCGCUCAACCAGAAAGUCUGUAAUCAUUUUAAGGGUA

Variants of: B1
Assay: self-cleavage, relative activity (ratio to wild type); higher = more cleavage; in vitro, sequencing; the parent is a self-cleaving ribozyme

Row | Variant | self-cleavage
1 | G15A | 0.92
2 | A22G A67G | 1.16
3 | A68G U132A | 1.27
4 | A22G C25G | 1.24
5 | G50A C113A | 0
6 | A82U A110G | 0.04
7 | A22G A47G | 1.34
8 | A78U C128A | 0.04
9 | G48U A94G | 0.54
10 | U2C A96G | 1.1
11 | U12C A18G | 0.87
12 | A67G U102A | 1.3
13 | U72C U127C | 0.07
14 | A67G A118U | 0.81
15 | U2C U102C | 0.64
16 | A68G A111U | 0.21
17 | A62G A118U | 0.73
18 | C45U A95G | 1.99
19 | A98C A117G | 2.47
20 | A22U A94U | 1.75
21 | C40A U97C | 1.43
22 | C61U A117G | 1.54
23 | U49C U131C | 1.11
24 | U124G A129C | 0.33

Row | Variant | self-cleavage
25 | A11G A111U | 0.11
26 | A63G C85U | 1.21
27 | U70C A111U | 0.07
28 | U38A G50A | 1.07
29 | A98G A118G | 0.26
30 | G74U U97C | 0.22
31 | U19G A91G | 1.28
32 | C6A U38A | 0.42
33 | U72A A94G | 0.02
34 | A13U C35A | 1.88
35 | C35G | 1.34
36 | A52U C113U | 0.06
37 | A18C U43C | 1.44
38 | U102C A114U | 0.11
39 | U108A A135U | 0.02
40 | G28U A89U | 2.26
41 | U3C C32U | 1.2
42 | A111G U130C | 0.01
43 | A47G A86C | 1.04
44 | A13G A90G | 1.15
45 | A56U A64G | 2.32
46 | A66U A86C | 1.36
47 | G50A C71U | 0.42
48 | A60G A68U | 1.38

Row | Variant | self-cleavage
49 | U38C G41U | 1.46
50 | A36G A59G | 1.75
51 | A60G A110G | 0.13
52 | A36U U120C | 1.34
53 | U26C A117U | 0.5
54 | C107G U108A | 0.01
55 | G14A U124C | 0.47
56 | U12G G138A | 1.44
57 | A47G A69G | 0.93
58 | U49C A86C | 0.78
59 | A18U A62C | 0.88
60 | A89G U122A | 1
61 | U38C U103A | 0.64
62 | A18G A30G | 0.88
63 | A96U A129G | 1.36
64 | A91G A125G | 0.16
65 | A59U A86G | 0.7
66 | U38C A66U | 1.32
67 | U102C U133G | 2.02
68 | A51U A56G | 0.93
69 | C46U G138U | 1.93
70 | A98G A125G | 0.13
71 | A4G A59G | 1.04
72 | U12C A135C | 0.84

Row | Variant | self-cleavage
73 | A11G A24G | 1.02
74 | U122C U139C | 0.78
75 | C85U U103C | 0.34
76 | C34U A92G | 1.04
77 | U103A A111G | 0.01
78 | G83A A140U | 2.25
79 | A60C A66G | 0.72
80 | A5G U130C | 1.01
81 | U9C U87G | 0.69
82 | U130G | 1.03
83 | C10U A86G | 0.7
84 | C71U U131C | 0.25
85 | A60G U124C | 0.63
86 | A69U A126U | 0.72
87 | A52G A96U | 1.86
88 | A27G U108C | 0.02
89 | G7A A86U | 1.86
90 | A5U U131C | 1.52
91 | A96C A126G | 0.77
92 | U127A A135U | 2.12
93 | A66G A116G | 0.6
94 | U43C G83A | 1.59
95 | A89G A118U | 0.54
96 | U72G U132A | 0.44

Row | Variant | self-cleavage
97 | A52G C88U | 1.39
98 | A5U U9C | 1.27
99 | C101U U131C | 0.27
100 | A18U G28A | 1.78
101 | A82G A94U | 0.64
102 | C6A U124A | 0.95
103 | U3A A116G | 0.32
104 | A18U C88U | 0.43
105 | C6U U127C | 0.57
106 | U49C A116G | 0.82
107 | A27G U139C | 1.05
108 | U97A A125G | 0.86
109 | A5G A91G | 0.47
110 | A117U | 0.59
111 | A59G G115U | 0.13
112 | A91G U133C | 1.1
113 | U43C A62G | 1.29
114 | C105A U131C | 0.05
115 | C40A U102C | 1.98
116 | A66U A91G | 0.65
117 | A94G U124C | 0.21
118 | A82C U120C | 0.11
119 | U102A A129U | 0.31
120 | A22G U26A | 0.67

Row | Variant | self-cleavage
121 | A51G A125G | 0.97
122 | A91U A98G | 0.61
123 | U3C U87C | 0.63
124 | A24G C112U | 0.02
125 | G20A A54G | 1.28
126 | A92U G123U | 2.07
127 | G20A U102C | 2.1
128 | U97C A111G | 0.02
129 | A56U A68G | 0.34
130 | U122G A129G | 1.33
131 | U49G A59U | 1.34
132 | G20U U97C | 0.63
133 | A23U U102C | 1.7
134 | A86G A95G | 1.72
135 | G1A U72C | 0.39
136 | A54G U100C | 2.16
137 | U9C A67C | 1.31
138 | U108C A126G | 0
139 | A33U G104A | 0.01
140 | A22G A135G | 1.54
141 | A64U A129G | 1.34
142 | U70C A82G | 0.31
143 | C34U U49C | 1.17
144 | A68U G119A | 1.58

Row | Variant | self-cleavage
145 | A24C A59G | 1.51
146 | A24G U108A | 0.04
147 | G58A A116G | 0.29
148 | A23G A90U | 1.85
149 | A66U G106A | 0.02
150 | G15A U122C | 0.95
151 | A91G U132C | 0.88
152 | G7A U26C | 1.44
153 | C32U A36U | 1.76
154 | A82G A140U | 0.53
155 | U43C G83U | 0.67
156 | U2C A135U | 0.5
157 | U37C A67G | 0.68
158 | A33C A118C | 0.99
159 | A4G A78G | 0.59
160 | G75U U102C | 0.12
161 | U70A C121U | 2.35
162 | A23U A24G | 1.15
163 | U38C U70C | 1.05
164 | A78G A92G | 0.13
165 | G20A U49C | 1.6
166 | A54G U131C | 1.3
167 | G53U U70C | 1.29
